Laboratory results: PMC4922666, “L-Tryptophan Production in Escherichia coli Improved by Weakening the Pta-AckA Pathway” (PLoS ONE, 2016)
Substitutions are numbered along the chain they refer to. Numbers in names are those of the source.

B1: Pta (phosphate acetyltransferase; EC 2.3.1.8) (Escherichia coli K-12) (protein)
chain: SRIIMLIPTGTSVGLTSVSLGVIRAMERKGVRLSVFKPIAQPRTGGDAPDQTTTIVRANSSTTTAAEPLKMSYVEGLLSSNQKDVLMEEIVANYHANTKDAEVVLVEGLVPTRKHQFAQSLNYEIAKTLNAEIVFVMSQGTDTPEQLKERIELTRNSFGGAKNTNITGVIVNKLNAPVDEQGRTRPDLSEIFDDSSKAKVNNVDPAKLQESSPLPVLGAVPWSFDLIATRAIDMARHLNATIINEGDINTRRVKSVTFCARSIPHMLEHFRAGSLLVTSADRPDVLVAACLAAMNGVEIGALLLTGGYEMDARISKLCERAFATGLPVFMVNTNTWQTSLSLQSFNLEVPVDDHERIEKVQEYVANYINADWIESLTATSERSRRLSPPAFRYQLTELARKAGKRIVLPEGDEPRTVKAAAICAERGIATCVLLGNPAEINRVAASQGVELGAGIEIVDPEVVRESYVGRLVELRKNKGMTETVAREQLEDNVVLGTLMLEQDEVDGLVSGAVHTTANTIRPPLQLIKTAPGSSLVSSVFFMLLPEQVYVYGDCAINPDPTAEQLAEIAIQSADSAAAFGIEPRVAMLSYSTGTSGAGSDVEKVREATRLAQEKRPDLMIDGPLQYDAAVMADVAKSKAPNSPVAGRATVFIFPDLNTGNTTYKAVQRSADLISIGPMLQGMRKPVNDLSRGALVDDIVYTIALTAIQSAQQQ
notes: full length, untagged by primers (NdeI/HindIII in pET24a, native stop codon), expressed in E. coli BL21(DE3), DEAE-Sepharose purified, about 77 kDa; variant Pta1 (P69L) is natural in E. coli CCTCC M 2016009
B2: Pta (phosphate acetyltransferase; EC 2.3.1.8) (Escherichia coli K-12; P69L) (protein)
chain: B1 chain with P68L
notes: as for B1

Substrate: CC(=O)SCCNC(=O)CCNC(=O)[C@H](O)C(C)(C)COP(=O)(O)OP(=O)(O)OC[C@H]1O[C@@H](n2cnc3c(N)ncnc32)[C@H](O)[C@@H]1OP(=O)(O)O
Assay: initial rates, Michaelis-Menten nonlinear regression
Format: biochemical, Escherichia coli
Details: 100 mM phosphate buffer pH 7.4, 25°C, acetyl-CoA 20-400 μmol/L
Description: initial rates, Michaelis-Menten nonlinear regression on Pta (phosphate acetyltransferase; EC 2.3.1.8)

[1] = natural variant Pta1 from E. coli CCTCC M 2016009

Row | Protein | Km [µM] | kcat [s⁻¹] | kcat/Km [M⁻¹ s⁻¹] | Km [1] [µM] | kcat [1] [s⁻¹] | kcat/Km [1] [M⁻¹ s⁻¹]
1 | B1 | 89 ± 6.3 | 2380 ± 120 | 2.7e+07 ± 3.6e+06 | – | – | –
2 | B2 | – | – | – | 260 ± 13 | 1480 ± 74 | 5.7e+06 ± 500000
